Measurements: article PMC6659671

Legend:
[1] = molecular target: HisBamA S425C (E. coli) (UniProt P0A940); assay: cross-linking
[2] = molecular target: HisBamA G781C (E. coli) (UniProt P0A940); assay: cross-linking; kinetics of intermolecular disulfide-bond formation in intact cells; 0.2 mM 4-DPS on ice for 0, 2, 5, 15, 30, 60 and 90 min; quantitated from αStrepII immunoblots
[3] = molecular target: HisBamA G781C (E. coli) (UniProt P0A940); assay: cross-linking

Substance	percent disulfide-bond formation [1]	K (rate constant of disulfide-bond formation, single-step fit) [2]	half-time of disulfide-bond formation [2]	percent disulfide-bond formation [3]
MBP−76EspP Y1298C (from UniProt Q7BSW5)	28%			
MBP−76EspP A1043C (from UniProt Q7BSW5)		0.038 min⁻¹	18.2 min	42%
